# Measurements: PMC12636033, “Chemical Engineering of Transcription Factors Uncovered Cell-Permeable μMax Modulators”
# Biological target: WT Max (Homo sapiens, UniProt P61244-2 13-93, M65Nle, norleucine written as M; other non-natural residues written as X)
# Test: PBM; 50-200 nM protein; PBS, 2% milk, BSA, salmon testes DNA, 0.02% Triton X-100
# Conditions: chain copies: 2; label: surface-attached array probe
# WT Max, sequence (P61244 other isoform, or with tags, fused parts or gaps M65Nle): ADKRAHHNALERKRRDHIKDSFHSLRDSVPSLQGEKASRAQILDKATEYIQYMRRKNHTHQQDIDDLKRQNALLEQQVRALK
row,Binder,binding signal
1,dBr_Jan07_27092 (dsDNA) DNA 1: GTTTAGAGGCTGTTTGCTGTCGCCCTACAACCACGTGTCTGTGTTCCGTTGTCCGTGCTG DNA 2: CAGCACGGACAACGGAACACAGACACGTGGTTGTAGGGCGACAGCAAACAGCCTCTAAAC,"4.94 robust z of log adjusted intensity (ours), mean of two arrays"
2,dBr_Jan07_01836 (dsDNA) DNA 1: GTCGAGAATCCAATACGCCACGTGCATACGTACGTCGTCTGTGTTCCGTTGTCCGTGCTG DNA 2: CAGCACGGACAACGGAACACAGACGACGTACGTATGCACGTGGCGTATTGGATTCTCGAC,"3.94 robust z of log adjusted intensity (ours), mean of two arrays"
3,dBr_Jan07_36232 (dsDNA) DNA 1: CCATGCCAACTAGGCGCACGTGATTGTTCGAGAACTGTCTGTGTTCCGTTGTCCGTGCTG DNA 2: CAGCACGGACAACGGAACACAGACAGTTCTCGAACAATCACGTGCGCCTAGTTGGCATGG,"4.03 robust z of log adjusted intensity (ours), mean of two arrays"
4,dBr_Jan07_39019 (dsDNA) DNA 1: TCCTTCCCGACGGACAGTGCAATCTGATTATCACGTGTCTGTGTTCCGTTGTCCGTGCTG DNA 2: CAGCACGGACAACGGAACACAGACACGTGATAATCAGATTGCACTGTCCGTCGGGAAGGA,"4.91 robust z of log adjusted intensity (ours), mean of two arrays"
5,dBr_Jan07_40749 (dsDNA) DNA 1: CTTCATGTCGCCCGCGTGGGTTGCCACACCAAGTGCGTCTGTGTTCCGTTGTCCGTGCTG DNA 2: CAGCACGGACAACGGAACACAGACGCACTTGGTGTGGCAACCCACGCGGGCGACATGAAG,"4.44 robust z of log adjusted intensity (ours), mean of two arrays"
6,dBr_Jan07_17567 (dsDNA) DNA 1: CCAAGAGGACCACGTGCTTTGGTCTCTAACTCGTATGTCTGTGTTCCGTTGTCCGTGCTG DNA 2: CAGCACGGACAACGGAACACAGACATACGAGTTAGAGACCAAAGCACGTGGTCCTCTTGG,"3.82 robust z of log adjusted intensity (ours), mean of two arrays"
7,dBr_Jan07_23881 (dsDNA) DNA 1: CATATTAGACCGGCGTATACGCACGTGGCGTAGATTGTCTGTGTTCCGTTGTCCGTGCTG DNA 2: CAGCACGGACAACGGAACACAGACAATCTACGCCACGTGCGTATACGCCGGTCTAATATG,"4.35 robust z of log adjusted intensity (ours), mean of two arrays"
8,dBr_Jan07_25672 (dsDNA) DNA 1: TCACGCACCCCGCAAGCGCAACCACGTGGTAAGGGTGTCTGTGTTCCGTTGTCCGTGCTG DNA 2: CAGCACGGACAACGGAACACAGACACCCTTACCACGTGGTTGCGCTTGCGGGGTGCGTGA,"6.01 robust z of log adjusted intensity (ours), mean of two arrays"
9,dBr_Jan07_17036 (dsDNA) DNA 1: ACATTTCTCCGCTCGTCCCACATAGCGTCACGTGGGGTCTGTGTTCCGTTGTCCGTGCTG DNA 2: CAGCACGGACAACGGAACACAGACCCCACGTGACGCTATGTGGGACGAGCGGAGAAATGT,"4.03 robust z of log adjusted intensity (ours), mean of two arrays"
10,dBr_Jan07_19752 (dsDNA) DNA 1: TAAGCTTCGGTTCTCGTTCGGTACAACACGTGTATGGTCTGTGTTCCGTTGTCCGTGCTG DNA 2: CAGCACGGACAACGGAACACAGACCATACACGTGTTGTACCGAACGAGAACCGAAGCTTA,"4.26 robust z of log adjusted intensity (ours), mean of two arrays"
11,dBr_Jan07_39189 (dsDNA) DNA 1: GGCTTGCATTGTTGGGCCCACGTGTTGATTGTCTAAGTCTGTGTTCCGTTGTCCGTGCTG DNA 2: CAGCACGGACAACGGAACACAGACTTAGACAATCAACACGTGGGCCCAACAATGCAAGCC,"4.2 robust z of log adjusted intensity (ours), mean of two arrays"
12,dBr_Jan07_09790 (dsDNA) DNA 1: ATTCTAATGATTGCGTATACACGTGTCTTGAATTGGGTCTGTGTTCCGTTGTCCGTGCTG DNA 2: CAGCACGGACAACGGAACACAGACCCAATTCAAGACACGTGTATACGCAATCATTAGAAT,"4.37 robust z of log adjusted intensity (ours), mean of two arrays"
13,dBr_Jan07_35732 (dsDNA) DNA 1: TAGTTGTATCTTGATCGCCGATTCCCCATGCCACGTGTCTGTGTTCCGTTGTCCGTGCTG DNA 2: CAGCACGGACAACGGAACACAGACACGTGGCATGGGGAATCGGCGATCAAGATACAACTA,"4.37 robust z of log adjusted intensity (ours), mean of two arrays"
14,dBr_Jan07_01937 (dsDNA) DNA 1: AGCTTTTTATCTCTGTGGGCGGGTAACAACCATGTGGTCTGTGTTCCGTTGTCCGTGCTG DNA 2: CAGCACGGACAACGGAACACAGACCACATGGTTGTTACCCGCCCACAGAGATAAAAAGCT,"4.33 robust z of log adjusted intensity (ours), mean of two arrays"
15,dBr_Jan07_25426 (dsDNA) DNA 1: TCTCTGTGCGGCGGGGTCCATAGCACGCACGTGTTAGTCTGTGTTCCGTTGTCCGTGCTG DNA 2: CAGCACGGACAACGGAACACAGACTAACACGTGCGTGCTATGGACCCCGCCGCACAGAGA,"4.48 robust z of log adjusted intensity (ours), mean of two arrays"
16,dBr_Jan07_31948 (dsDNA) DNA 1: TGTCATTACCTGTCCGAGCAGGACAAAAAACCACGTGTCTGTGTTCCGTTGTCCGTGCTG DNA 2: CAGCACGGACAACGGAACACAGACACGTGGTTTTTTGTCCTGCTCGGACAGGTAATGACA,"4.44 robust z of log adjusted intensity (ours), mean of two arrays"
17,dBr_Jan07_03400 (dsDNA) DNA 1: ACGTCGGCTATGATTTCACGCTATTCTAAGACACGTGTCTGTGTTCCGTTGTCCGTGCTG DNA 2: CAGCACGGACAACGGAACACAGACACGTGTCTTAGAATAGCGTGAAATCATAGCCGACGT,"4.73 robust z of log adjusted intensity (ours), mean of two arrays"

row,Binder,binding signal
1,dBr_Jan07_08390 (dsDNA) DNA 1: GTATTGTTGCGTATGTCACGTGGTACAAAACCCAGGGTCTGTGTTCCGTTGTCCGTGCTG DNA 2: CAGCACGGACAACGGAACACAGACCCTGGGTTTTGTACCACGTGACATACGCAACAATAC,"4.12 robust z of log adjusted intensity (ours), mean of two arrays"
2,dBr_Jan07_20580 (dsDNA) DNA 1: AAATACCTATCGATAACCACTCACGTGGTGGTTCGCGTCTGTGTTCCGTTGTCCGTGCTG DNA 2: CAGCACGGACAACGGAACACAGACGCGAACCACCACGTGAGTGGTTATCGATAGGTATTT,"3.85 robust z of log adjusted intensity (ours), mean of two arrays"
3,dBr_Jan07_34584 (dsDNA) DNA 1: ATTGCCGCACCTGATGCATCGCCACGTGTTATAATCGTCTGTGTTCCGTTGTCCGTGCTG DNA 2: CAGCACGGACAACGGAACACAGACGATTATAACACGTGGCGATGCATCAGGTGCGGCAAT,"6.19 robust z of log adjusted intensity (ours), mean of two arrays"
4,dBr_Jan07_16225 (dsDNA) DNA 1: ACATTCCTAGCTATTACTTGGTAGCTCTCAGCACGTGTCTGTGTTCCGTTGTCCGTGCTG DNA 2: CAGCACGGACAACGGAACACAGACACGTGCTGAGAGCTACCAAGTAATAGCTAGGAATGT,"4.26 robust z of log adjusted intensity (ours), mean of two arrays"
5,dBr_Jan07_07207 (dsDNA) DNA 1: TCAGCCGCGTGGCACAATGTCCACAGGTAGGGTACAGTCTGTGTTCCGTTGTCCGTGCTG DNA 2: CAGCACGGACAACGGAACACAGACTGTACCCTACCTGTGGACATTGTGCCACGCGGCTGA,"5.41 robust z of log adjusted intensity (ours), mean of two arrays"
6,dBr_Jan07_28790 (dsDNA) DNA 1: CTATTCCGATGCCATAAAACTTTCCACTCCACGTGTGTCTGTGTTCCGTTGTCCGTGCTG DNA 2: CAGCACGGACAACGGAACACAGACACACGTGGAGTGGAAAGTTTTATGGCATCGGAATAG,"4.91 robust z of log adjusted intensity (ours), mean of two arrays"
7,dBr_Jan07_20372 (dsDNA) DNA 1: TCGTTTGTACACGTGGGTTTGCAAGAGTAAGTGTCCGTCTGTGTTCCGTTGTCCGTGCTG DNA 2: CAGCACGGACAACGGAACACAGACGGACACTTACTCTTGCAAACCCACGTGTACAAACGA,"4.3 robust z of log adjusted intensity (ours), mean of two arrays"
8,dBr_Jan07_32554 (dsDNA) DNA 1: CGACGTTGTCTGACGAATAATGCCGAGCGGACACGTGTCTGTGTTCCGTTGTCCGTGCTG DNA 2: CAGCACGGACAACGGAACACAGACACGTGTCCGCTCGGCATTATTCGTCAGACAACGTCG,"4.1 robust z of log adjusted intensity (ours), mean of two arrays"
9,dBr_Jan07_16170 (dsDNA) DNA 1: TACTAGATTACTACAGACGTTTGCGATCACGTGCATGTCTGTGTTCCGTTGTCCGTGCTG DNA 2: CAGCACGGACAACGGAACACAGACATGCACGTGATCGCAAACGTCTGTAGTAATCTAGTA,"5.85 robust z of log adjusted intensity (ours), mean of two arrays"
10,dBr_Jan07_32059 (dsDNA) DNA 1: CCGGTCACTGCCGGTGATGCCCTGCTTTATCACGTGGTCTGTGTTCCGTTGTCCGTGCTG DNA 2: CAGCACGGACAACGGAACACAGACCACGTGATAAAGCAGGGCATCACCGGCAGTGACCGG,"4.08 robust z of log adjusted intensity (ours), mean of two arrays"
11,dBr_Jan07_01481 (dsDNA) DNA 1: CCGCCAGCATTTCCTGCTTTGCACGTGTAAGATACCGTCTGTGTTCCGTTGTCCGTGCTG DNA 2: CAGCACGGACAACGGAACACAGACGGTATCTTACACGTGCAAAGCAGGAAATGCTGGCGG,"4.74 robust z of log adjusted intensity (ours), mean of two arrays"
12,dBr_Jan07_00940 (dsDNA) DNA 1: GGATATGGCCCTCCCTACGAACACGTGGAGTTAGGCGTCTGTGTTCCGTTGTCCGTGCTG DNA 2: CAGCACGGACAACGGAACACAGACGCCTAACTCCACGTGTTCGTAGGGAGGGCCATATCC,"4.33 robust z of log adjusted intensity (ours), mean of two arrays"
13,dBr_Jan07_12609 (dsDNA) DNA 1: TGATAAGGATCTACTTCAAGAGCACGTGTCATCTATGTCTGTGTTCCGTTGTCCGTGCTG DNA 2: CAGCACGGACAACGGAACACAGACATAGATGACACGTGCTCTTGAAGTAGATCCTTATCA,"4.35 robust z of log adjusted intensity (ours), mean of two arrays"
14,dBr_Jan07_03225 (dsDNA) DNA 1: TTCTATCCCTAATCTCCGCGTGGCTACCCCTTCAAGGTCTGTGTTCCGTTGTCCGTGCTG DNA 2: CAGCACGGACAACGGAACACAGACCTTGAAGGGGTAGCCACGCGGAGATTAGGGATAGAA,"4.25 robust z of log adjusted intensity (ours), mean of two arrays"
15,dBr_Jan07_18904 (dsDNA) DNA 1: CCCGGATAATATTTCGGCTTCAAGAATCACGTGGAAGTCTGTGTTCCGTTGTCCGTGCTG DNA 2: CAGCACGGACAACGGAACACAGACTTCCACGTGATTCTTGAAGCCGAAATATTATCCGGG,"4.33 robust z of log adjusted intensity (ours), mean of two arrays"
16,dBr_Jan07_13408 (dsDNA) DNA 1: CCGCGCGCAGGCACTTAGGGTACCTGCTGTCCACGTGTCTGTGTTCCGTTGTCCGTGCTG DNA 2: CAGCACGGACAACGGAACACAGACACGTGGACAGCAGGTACCCTAAGTGCCTGCGCGCGG,"4.13 robust z of log adjusted intensity (ours), mean of two arrays"
